Assays:
[1] = Inhibitor binding assay of SEQ ID NO 6 variants, Inhibitor 1, in Model B detergent; assay type: biochemical; conditions: in Model B relative to SEQ ID NO 6; relative Ki, IF>1.0 = lower Ki
Source text: (§1) Where E is the protease, I is the inhibitor and EI is the protease-inhibitor complex. […] The concentration of enzyme-inhibitor in the detergent solution is then given by:
(§2) where Etot is the total protease concentration ([Etot]=[E]+[EI]), Itot is the total inhibitor concentration ([Itot]=[I]+[EI]), and Ki is the equilibrium binding constant for the reaction. The measured slopes V are given by:
(§3) where V0 is the slope without inhibitor added. To calculate apparent binding constant Ki least square fitting of measured slopes at various inhibitor concentrations to this equation is performed with Ki and V0 as variables.
(§4) Purified protease variants are pre-diluted to approximately 0.2 mg/ml in dilution buffer. The experimental conditions are described in Table 5 40 μl diluted protease is then mixed with 40 μl inhibitor solution Inhibitor 1 or 40 μl inhibitor 2 solution in the well of a 96 well microtiter plate (Nunc F 96-MTP). […] After 10 min mixing of protease and inhibitor at room temperature, 30 μl of the mixture is transferred to a microtiter plate (Nunc U96 PP 0.5 ml) with 270 μl Model B detergent (described in Table 1) in the wells resulting in inhibitor 1 concentrations of 0-30 μM and inhibitor 2 concentrations of 0-6000 μM. Protease, inhibitor and detergent is mixed for 1 hour using magnetic bars for 1 hour at room temperature to reach equilibrium. Then 20 μl is transferred to a microtiter plate (Nunc F 96-MTP). 100 μl substrate solution is added and after 5 sec mixing absorbance at 405 nm is measured every 20 sec for 5 min on a SpectraMax Plus reader. Slope from linear regression of initial increase in absorbance at 405 nm is used for calculation of apparent binding constants. Ki values were calculated according to the “Calculation of Ki” method described in “Materials and Methods”
(§5) Having the Ki for each variant, it is possible to calculate the effect of a single mutation, if data are available for at least two variants that differ only by that mutation. In this case, the relative Ki for the mutation (Improvement Factor, or IF) is calculated: […]

[2] = Inhibitor binding assay of SEQ ID NO 6 variants, Inhibitor 2, in Model B detergent; assay type: biochemical; conditions: in Model B relative to SEQ ID NO 6; relative Ki, IF>1.0 = lower Ki
Source text: as §1, §2, §3, §4, §5

Molecule | inhibitor 1 binding constant improvement factors (IF) [1] | inhibitor 2 binding constant improvement factors (IF) [2]
N60F + S100I: protease variant of SEQ ID NO 6 (protein, Protease C) AQSVPWGISRVQAPAAHNRGLTGSGVKVAVLDTGISTHPDLNIRGGASFVPGEPSTQDGFGHGTHVAGTIAALNNSIGVLGVAPSAELYAVKVLGASEGIGSVSSIAQGLEWAGNNGMHVANLSLGSPSPSATLEQAVNSATSRGVLVVAASGNSGAGSISYPARYANAMAVGATDQNNNRASFSQYGAGLDIVAPGVNVQSTYPGSTYASLNGTSMATPHVAGAAALVKQKNPSWSNVQIRNHLKNTATSLGSTNLYGSGLVNAEAATR | 11.26 | 
S100I + Y166F: protease variant of SEQ ID NO 6 (protein, Protease C) AQSVPWGISRVQAPAAHNRGLTGSGVKVAVLDTGISTHPDLNIRGGASFVPGEPSTQDGNGHGTHVAGTIAALNNSIGVLGVAPSAELYAVKVLGASEGIGSVSSIAQGLEWAGNNGMHVANLSLGSPSPSATLEQAVNSATSRGVLVVAASGNSGAGSISYPARFANAMAVGATDQNNNRASFSQYGAGLDIVAPGVNVQSTYPGSTYASLNGTSMATPHVAGAAALVKQKNPSWSNVQIRNHLKNTATSLGSTNLYGSGLVNAEAATR | 11.26 | 2.31
S100I + L134V: protease variant of SEQ ID NO 6 (protein, Protease C) AQSVPWGISRVQAPAAHNRGLTGSGVKVAVLDTGISTHPDLNIRGGASFVPGEPSTQDGNGHGTHVAGTIAALNNSIGVLGVAPSAELYAVKVLGASEGIGSVSSIAQGLEWAGNNGMHVANLSLGSPSPSATVEQAVNSATSRGVLVVAASGNSGAGSISYPARYANAMAVGATDQNNNRASFSQYGAGLDIVAPGVNVQSTYPGSTYASLNGTSMATPHVAGAAALVKQKNPSWSNVQIRNHLKNTATSLGSTNLYGSGLVNAEAATR | 15.14 | 1.1
A164S: protease variant of SEQ ID NO 6 (protein, Protease C) AQSVPWGISRVQAPAAHNRGLTGSGVKVAVLDTGISTHPDLNIRGGASFVPGEPSTQDGNGHGTHVAGTIAALNNSIGVLGVAPSAELYAVKVLGASEGSGSVSSIAQGLEWAGNNGMHVANLSLGSPSPSATLEQAVNSATSRGVLVVAASGNSGAGSISYPSRYANAMAVGATDQNNNRASFSQYGAGLDIVAPGVNVQSTYPGSTYASLNGTSMATPHVAGAAALVKQKNPSWSNVQIRNHLKNTATSLGSTNLYGSGLVNAEAATR |  | 1.84

— US20170342349A1, “STABILIZED ENZYME COMPOSITIONS” (NOVOZYMES A/S, priority 2014, published 2017)
